Measured values published in paper PMC9481538, “The interaction between LC8 and LCA5 reveals a novel oligomerization function of LC8 in the ciliary-centrosome system” (Scientific Reports, 2022).

Key:
LC8 [1] = biological target: T1, LC8 (Homo sapiens, UniProt Q96FJ2); test: isothermal titration calorimetry, sLCA5 fragments titrated with LC8; format: binding; conditions: ITC, PBS pH 7.4, 1 mM TCEP, 37 °C; MBP-fused sLCA5 titrated with LC8
T1 construct: 6xHis (N); made in house; host or cells: E. coli BL21 (DE3) Rosetta
Procedure: LC8 and MBP-fused LCA5 constructs were prepared in PBS supplemented with 1 mM TCEP. Before measurement, protein samples were dialyzed overnight in PBS pH 7.4 (Orange Scientific, OrDial D14 membrane). Peptides were diluted from stock with the buffer used for dialysis. The concentration of samples was determined based on absorbance at 280 nm in the case of proteins, and 205 nm for the peptide. Experiments were performed using MicroCal PEAQ-ITC (Malvern Panalytical), LCA5 peptides were measured at 25 °C, proteins were analyzed at 37 °C. Lebercilin peptide was injected into the cell 18 times 2 μl volumes, with 5 min timing between injections. In case of the protein, LCA5 was placed in the sample cell, and LC8 was injected during 37 injections, 1 μl each. The results were evaluated using MicroCal PEAQ-ITC Analysis Software.

GST-fused LC8 = test: GST pull-down of LC8 and sLCA5; format: binding; conditions: GST-LC8 bait, MBP-, 6x-His-fused sLCA5 prey, PBS, 1 mM DTT, room temperature; result in words
Procedure: For the pull-down experiments, GST-fused LC8 was used as bait, and MBP-, 6x-His-fused LCA5 variants as prey. For controls, GST and MBP were used. Proteins were expressed in 100 ml cultures of E. coli BL21 (DE3) Rosetta cells as described above. Cells were harvested, resuspended in 5 ml PBS supplemented with 1 mg/ml lysozyme and 1 mM DTT, sonicated and clarified by centrifugation. 20 μl of Glutathione Sepharose 4B (Macherey–Nagel) (75%) resin was used for each experiment. Baits were incubated with the resin for 1 h at room temperature, then washed with PBS supplemented with 1 mM DTT. Prey proteins were added and incubated for one hour. The beads were washed and eluted by boiling in a 2 × SDS sample buffer and analyzed in tricine SDS page according to the protocol of Schagger et al[43].

LC8 [2] = biological target: T1, LC8; test: SDS-PAGE densitometric analysis of gel filtration fractions (sLCA5:LC8 molar ratio); format: binding; conditions: SDS-PAGE densitometry; result in words
Procedure: (§1) For analytical gel filtration a Superose 6 Increase 10/300 (Cytiva) was used with an effective resolution between 5–5000 kDa range and a void volume above 5000 kDa. The column was equilibrated in DPBS supplemented with 200 μM TCEP. The calibration curve was fitted on the chromatogram of gel filtration standard mix (BioRad) with the addition of Dextran Blue to determine the void volume. 100 μl of LCA5 purified protein or LCA5-LC8 complex was injected at the concentration of 30 μM for LCA5 and 150 μM for LC8, with a flow rate of 500 μl/min immediately or after 60 min of incubation at 37 °C. For densitometric analysis, fractions were collected and 200 μl of samples were precipitated in 1.8 ml 96% ethanol at − 80 °C for 2 h. The samples were centrifugated for 30 min at 14,000 g, and dissolved in 15 μl of SDS sample buffer. 10 μl of each sample was run on Tricine-SDS gel. The calibration of the densitometry was performed on samples of known molar ratio of sLCA5 construct and LC8 (see the original gel used for calibration on Suplementary Fig. S16). Data evaluation was performed by using Origin 8 software and Fiji ImageJ software.

[3] = analytical gel filtration; format: physicochemical; conditions: with LC8, 60 min at 37 °C vs non-incubated complex
Procedure: as §1

[4] = negative staining transmission electron microscopy of sLCA5-LC8 complexes; format: physicochemical
Procedure: For TEM negative staining experiments, a JEOL JEM-1011 (JEOL Ltd., Tokyo, Japan) electron microscope was used. The purified LCA5-LC8 complexes or LC8 or LCA5 forms alone were put together by using LCA5-WT or the single or double mutants at 30 μM and LC8 at 150 μM concentration in a buffer of 20 mM Tris 70 mM NaCl, pH 7.4, and incubated at 37 °C for 1 h. The complexes were diluted to a final 0.2 mg/ml concentration in the buffer and applied to 300 mesh formvar/carbon-coated copper grids (SPI Inc., USA). After 2 min of incubation the surplus was removed by filter paper and 1% uranyl acetate was applied for 1 min as negative staining. Images were taken around the middle of the grid at 5000, 50,000, 150,000 and 300,000-fold magnification. The collected data was analyzed by Fiji ImageJ software, and the statistical analysis was carried out in Origin 8 software.

HA-tagged LC8 = test: co-immunoprecipitation of LC8 with full-length FLAG-LCA5 in HEK293 cells; format: cell-based, human; conditions: for co-immunoprecipitation of LC8: HEK-293, FLAG-LCA5 and HA-LC8 co-expressed 48 h, anti-LCA5 and anti-FLAG antibodies
Procedure: HEK-293 cells were transfected with FLAG-LCA5-pcDNA3.1 + and HA-LC8-pcDNA3.1 + constructs and incubated for 48 h. After 48 h, cells were washed with ice-cold DPBS (Lonza) and lysed on ice with lysis buffer (50 mM TRIS 2 mM EDTA 100 mM NaCl 10% Glycerol and 0.5% IGEPAL supplemented with protease (Sigma Aldrich) and phosphatase (Sigma-Aldrich) inhibitors). Total protein concentration was determined by the BCA kit (Sigma Aldrich). For each co-immunoprecipitation reaction 1 mg total protein was used and 20 μg of anti-lebercilin (19,333-1-AP Proteintech), anti-LC8 (16,811–1-AP Proteintech), polyclonal antibody, anti-FLAG (8146 Cell Signaling Technologies), anti-MYC (2276 Cell Signaling Technologies) or anti-HA (sc-7392 Santa Cruz Biotechnology) monoclonal antibody was added respectively and incubated for 4 h at 4 °C. The immunocomplexes were incubated with protein A/G sepharose beads (Cell Signaling Technologies) overnight. The immunocomplex-containing beads were washed three times in lysis buffer, then two times in detergent-free lysis buffer, proteins were eluted by boiling in 2 × Laemmli buffer. The samples were analyzed by 10% tricine-SDS PAGE. The SDS gel was cut half above the 35 kDa marker band and subsequently blotted onto two separate Amersham Hybond PVDF membrane (GE Healthcare). The LCA5 containing upper half was blotted for 180 min, the LC8 containing lower part was blotted for 80 min. The membranes were blocked in 5% BSA and the LCA5 and LC8 containing parts are incubated with mouse anti-FLAG 1:1000 (8146 Cell Signaling Technologies), and rabbit anti-LC8 1:1000 (ab51603 Abcam) primary antibodies respectively overnight at 4 °C. After washing with TBS-T, membranes were incubated with secondary antibodies (ECL PLEX Goat-Anti-Rabbit IgG CY5 1:1500 and CL PLEX Goat-Anti-Mouse IgG CY3 1:1500, Ge Healthcare) for 1 h at room temperature, then scanned in a Typhoon scanner (GE Healthcare).

T1 sequence (Q96FJ2 whole entry, the tested form may be a part): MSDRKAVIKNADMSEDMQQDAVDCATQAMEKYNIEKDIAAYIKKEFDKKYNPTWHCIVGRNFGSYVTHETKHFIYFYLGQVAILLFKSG

B1: sLCA5-ΔVQT: sLCA5 with the three core residues VQT exchanged for three alanines (protein)
chain: DTDLVTKRILSARLLKINELQNEVSELQVKLAELLKENKSLKRLQYRQEKALNKFEDAENEISQLIFRHNNEITALKERLRKSQEKERATEKRVKDTESELFRTKFSLQKLKEISEARHLPERDDLAKKLVSAELKLDDTERRIKELSKNLELSTNSFQRQLLAERKRAYEAHDENKVLQKEVQRLYHKLKEKERELDIKNIYSNRLPKSSPNKEKELALRKNAACQSDFADLCTKGAAAMEDFKPEEYPLTPETIMCYENKWEEPGHLTLDLQSQKQDRHGEAGILNPIMEREEKFVTDEELHVVKQEVEKLEDEWEREELDKKQKEKASLLER
modifications: left off: MBP, N-terminal, kept | His6, C-terminal, kept
notes: sLCA5 with the three core residues VQT exchanged for three alanines
LC8 [1]
  − TΔS: 4.32 kcal/mol
GST-fused LC8
  interaction with LC8 (GST pull-down): did not abolish the interaction with LC8
LC8 [2]
  LC8 content of fraction: only a trace amount of LC8

B2: sLCA5-ΔCQS: sLCA5 with alanine mutations in the CQS motif core; VQT motif intact (protein)
chain: DTDLVTKRILSARLLKINELQNEVSELQVKLAELLKENKSLKRLQYRQEKALNKFEDAENEISQLIFRHNNEITALKERLRKSQEKERATEKRVKDTESELFRTKFSLQKLKEISEARHLPERDDLAKKLVSAELKLDDTERRIKELSKNLELSTNSFQRQLLAERKRAYEAHDENKVLQKEVQRLYHKLKEKERELDIKNIYSNRLPKSSPNKEKELALRKNAAAAADFADLCTKGVQTMEDFKPEEYPLTPETIMCYENKWEEPGHLTLDLQSQKQDRHGEAGILNPIMEREEKFVTDEELHVVKQEVEKLEDEWEREELDKKQKEKASLLER
modifications: left off: MBP, N-terminal, kept | His6, C-terminal, kept
notes: sLCA5 with alanine mutations in the CQS motif core; VQT motif intact
LC8 [1]
  − TΔS: 0.07 kcal/mol
GST-fused LC8
  interaction with LC8 (GST pull-down): maintained the interaction with LC8
[3]
  void fraction increment on incubation: 35%
[4]; 30 μM sLCA5 + 150 μM LC8, 37 °C 1 h, 20 mM Tris 70 mM NaCl pH 7.4
  measured diameter median of spherical complexes: 32 nm
[4]; TEM, result in words
  amount of detectable oligomeric particles: notable amount of particles around the edges of the grids

B3: FLAG-LCA5: full-length LCA5 with N-terminal FLAG-tag (protein)
chain: MGERAGSPGTDQERKAGKHHYSYLSDFETPQSSGRSSLVSSSPASVRRKNPKRQTSDGQVHHQAPRKPSPKGLPNRKGVRVGFRSQSLNREPLRKDTDLVTKRILSARLLKINELQNEVSELQVKLAELLKENKSLKRLQYRQEKALNKFEDAENEISQLIFRHNNEITALKERLRKSQEKERATEKRVKDTESELFRTKFSLQKLKEISEARHLPERDDLAKKLVSAELKLDDTERRIKELSKNLELSTNSFQRQLLAERKRAYEAHDENKVLQKEVQRLYHKLKEKERELDIKNIYSNRLPKSSPNKEKELALRKNAACQSDFADLCTKGVQTMEDFKPEEYPLTPETIMCYENKWEEPGHLTLDLQSQKQDRHGEAGILNPIMEREEKFVTDEELHVVKQEVEKLEDEWEREELDKKQKEKASLLEREEKPEWETGRYQLGMYPIQNMDKLQGEEEERLKREMLLAKLNEIDRELQDSRNLKYPVLPLLPDFESKLHSPERSPKTYRFSESSERLFNGHHLQDISFSTPKGEGQNSGNVRSPASPNEFAFGSYVPSFAKTSERSNPFSQKSSFLDFQRNSMEKLSKDGVDLITRKEKKANLMEQLFGASGSSTISSKSSDPNSVASSKGDIDPLNFLPGNKGSRDQEHDEDEGFFLSEGRSFNPNRHRLKHADDKPAVKAADSVEDEIEEVALR
modifications: left off: FLAG, N-terminal, kept
notes: full-length LCA5 with N-terminal FLAG-tag
HA-tagged LC8
  co-immunoprecipitation of LC8: interaction was detected
HA-tagged LC8; listed as FLAG-tagged LCA5
  co-immunoprecipitation of LC8: LC8 was co-precipitated
HA-tagged LC8; HEK-293, FLAG-LCA5 and HA-LC8 co-expressed, precipitation with anti-HA and anti-LC8 antibodies
  co-immunoprecipitation interaction: no
